Laboratory results published in the Human Domainome abundance scans (Beltran et al. 2025).

B1: Androgen receptor, residues 557 to 632; numbered along this chain, P10275 (parent)
chain: QKTCLICGDEASGCHYGALTCGSCKVFFKRAAEGKQKYLCASRNDCTIDKFRRKNCPSCRLRKCYEAGMTLGARKL

Variants of: B1
Assay: abundance fitness (aPCA) (normalised: wild type 0, dead -1); higher = more abundant; growth selection in yeast, the domain comes from the species named
Settings: Homo sapiens

Abundance fitness: each site, then its substitutions
T3: A -0.081, S -0.059, R -0.083
P57: E 0.044, Q -0.095, F -0.024, K -0.043, W 0, M -0.09, C 0.088
N44: S -0.076, A -0.064, W -0.344, F -0.158, R -0.258
K63: D -0.283, V -0.142, E 0.009, R -0.079, G -0.4, W -0.482, N -0.127, P -0.949
K35: W -0.213, C -0.007, Q 0.007, A -0.093, N -0.093, D -0.118
C40: Q -0.482, T -0.554, V -0.693, W -1.16, I -0.948
Y65: M -0.093, T -0.276, K -0.178, A -0.158, S -0.208, D -0.17
K37: V -0.058, Y -0.178, W -0.168, R -0.054, D -0.009, F -0.331, G -0.08
T47: S -0.015, M -0.086, F -0.077, Q -0.075, G -0.079
C24: I -0.904, L -0.898, N -0.904, P -0.853, Y -1.08, V -0.907, A -0.96, W -0.903
C56: P -0.812, Q -1.01, H -0.804, F -0.938
Q36: S -0.094, D 0.048, Y -0.189, L -0.075, V 0.065, N -0.134, G 0.011, W -0.251
L39: M 0.047, V 0.029, C -0.069, Y 0.045, T -0.032, H -0.033, E 0.054, G -0.009, R -0.006
N55: V -0.151, H -0.011, Y -0.067, W -0.421, R -0.06, M 0.216, L -0.022, E -0.407
K50: P -0.007, C -0.103, E -0.124, M -0.195
R52: F -0.164, H -0.076, M -0.067, S -0.087, W -0.311
F27: I -0.548, R -0.977, K -0.816, A -0.729, M -1.01, P -0.655
G17: R -0.33, N -0.061, S -0.319
D45: G -0.162, W -0.465, M -0.206, I -0.07, S -0.275, Q 0.176
Q1: V 0.06, K 0.076, F 0.16, W -0.032, A -0.144, G 0.048, Y 0.172, R -0.228, T 0.106
E33: G 0.044, Y -0.187, R -0.042, Q 0.023, C 0.072, V -0.089
L71: T 0.073, Q -0.043, E -0.114, F 0.103, K 0.041, N -0.129, Y -0.043, G -0.128
H15: V -0.182, K -0.106, W 0.097, E 0.099, R -0.221
S23: H -0.036, G -0.054, I -0.836, D -0.069, Q -0.084
I48: E -0.348, H -0.482, P -0.25, D -0.331, M -0.154, C -0.585
C7: W -0.79, S -0.615, V -1.2
C46: A -0.904, H -0.38, M -0.914, Q -0.8, S -0.843
I6: A -0.427, S -0.617, Q -0.459, K -1.05, L -0.789, T -0.256, M -0.811, D -0.646
A73: C -0.297, I -0.101
C64: L -0.592, T -0.553, K -0.805
L5: D -0.065, W -0.122, F -0.078, V -0.145, S -0.013, H -0.137, A -0.109, Q -0.113
R30: F 0.03, E 0.019, N 0.014, S -0.016, Y -0.191
Y16: P -0.455, T -0.445, N -0.307, A -0.397
C14: G -0.11, D 0.081, A -0.013, P -0.057, M -0.087, I 0.085, V -0.231
Y38: I 0.111, A -0.057, L -0.046, C -0.305, K -0.085, T -0.179, G -0.222, H -0.231, E -0.064, D -0.059, P -0.007
S12: H -0.237, R -0.06, C -0.305, E 0.047, K -0.054, Y -0.031, I -0.091, Q 0.049, W -0.181, A -0.046, T -0.149, L 0.055, V -0.025
V26: K 0.058, H 0.039, S 0.038, I 0.013, L 0.008, G -0.001
K29: P -0.377, S -0.248, V -0.215, I -0.353, W 0.035, Y -0.148, D -0.258
A31: Q -0.075, D -0.503, L -0.225, R -0.486, P -0.519
S58: P 0.013, I -0.577, T -0.229, G 0.059, C 0.075, K -0.125, Q -0.134
C4: W -0.964, K -0.87, G -0.61, R -0.114, E -0.563, M -0.679, Y -0.884
G8: Y 0.036, T -0.31, V -0.868, S -0.165, L -0.146, H -0.06, C -0.319, E -0.045, R -0.43, N -0.29, Q -0.463
G13: T -0.057, D -0.198, C -0.311, E -0.274
R74: T 0.088, S -0.032, G 0.05, Q 0.023
L19: A -0.063, W 0.029
D9: A -0.089, N -0.008, W -0.289, R -0.378, G -0.182
D49: W -0.402, T -0.165, V -0.512, H -0.382, C -0.538, P -0.482, N -0.188
A18: I 0.124, L -0.155, V -0.04, C -0.084, F -0.684, Q -0.223, P -0.26
C21: S -1.05, I -0.777, T -0.81, L -0.993, R -0.895
A32: T 0.114, H -0.233, W -0.088, C -0.023, R -0.155, V -0.016, S -0.052, D 0.007
G22: I -0.262, Y -0.207, P -0.026, R -0.166, W -0.034, V -0.141, S -0.048, A -0.025
T20: W -0.637, Q -0.856, R -0.859
K25: A 0.026, G 0.013
G72: E 0.126, W -0.076, Q 0.089, R -0.009, D 0.098, N -0.136
A41: G -0.091, S -0.041, R -0.051, T -0.056, Q -0.081, E -0.079, N -0.165, P -0.12, M -0.186
